In article PMC4397081:

Target: Type 2 (MM2) sCJD proteinase K-resistant PrP^Sc aggregates (human)
Test: sedimentation velocity in sucrose gradient (ultracentrifugation)

“Type 2 (MM2) sCJD proteinase K-resistant PrP^Sc aggregates (complex)” was tested. Which stoichiometry N did it give?
The stoichiometry N was > 600 monomers.
